For this data set, the system named is K4 kissing-loop RNA reporter. The experiment in a line: apparent KD of K4 kissing-loop reporter; higher = weaker reporter binding. Conditions: Eterna round: R107. The procedure:
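RNA-MaP round R107: designed RNA switches with theophylline, tryptophan, arginine or FMN aptamers are transcribed on-chip within common flanks. They are titrated with a labelled K4 kissing-loop RNA reporter in RNA-MaP buffer (100 mM Tris pH 7.5, 80 mM KCl, 4 mM MgCl2), without ligand or with the indicated ligand. Median apparent KD per design.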

The mark [1] stands for this setting: input ligand: theophylline 20 uM.
[2] abbreviates: input ligand: tryptophan 2.4 mM.
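Note: bound reporter read as fluorescence of individual clusters on recovered sequencing chips by microscopy, with normalized cluster intensities fitted with a binding model.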

With “AAGUGUGUGGCGGCCGCCACUAGAAUCCAGUGAUGUUGGAGUAAUCAAAUAAAUAAUAAUAAACAUAGGACCGGGCCAUAUAGAA [Same State - Tryptophan B (Freestyle 2)]”, the “apparent KD of K4 kissing-loop reporter” value (input ligand: FMN 200 uM) came to 154 nM; the “apparent KD of K4 kissing-loop reporter” value (input ligand: arginine 13.2 mM) came out at 138 nM; the “apparent KD of K4 kissing-loop reporter” value (input ligand: none) amounted to 147 nM; the “apparent KD of K4 kissing-loop reporter” value under setting [1] amounted to 134 nM; the “apparent KD of K4 kissing-loop reporter” value under setting [2] turned out to be 129 nM.
The matching figures for “AAGUGUGUGGCGGCCGCCACUAGAAUCCAGUGAUGUUGGAGUUAUCAUAUAAAUGAUAAUCAACAUAGGACCGGGCCAUAUAGAA [Same State - Tryptophan B (Freestyle 7)]”: 639 nM, 523 nM, 550 nM, 745 nM and 783 nM.
Consider “AAUAAAAUCACGGCCGCCACUGAUACUAAUAUUAGCAGUGAUGUUGCUAUGUAUAAUUUAUUAAACAGGACCGGGUGAAUAUUUA [JR_ExcTryptoB_Sub015]”, for which the “apparent KD of K4 kissing-loop reporter” value reads like this: (input ligand: FMN 200 uM) 159 nM; (input ligand: arginine 13.2 mM) 129 nM; (input ligand: none) 126 nM; under setting [1], 150 nM; under setting [2], 114 nM.
In the same order, the values of “AAUAACUUGCAGUGAUGUUGCAAGAAAUCUCAGGAUAUCAGGAAACUGAGAAGGGAGUAUCCUGAGUAAACAUCACAUCUUAGGA [KL-SSFMN-A8]” are 322 nM, 364 nM, 399 nM, 376 nM and 369 nM.
In the same order, the values of “AAUAAUAAUAAAUAAAGAUUGAUGAGCAAACGAGGACCGGUACGGCCGCCACUCGAGUGAUGUUCGAGAAGCUCAUCAAUCAUAA [AK4.8 Exc Tryptophan A]” are 147 nM, 134 nM, 138 nM, 112 nM and 337 nM.
In the same order, the values of “AAUAAUCUAGGUGAUACCAGCUCAACAUGAGUGAUGUUCAUGAAAUAAUGUAGAGUUGAGAGCCCUUGGCAGCACCUAGAUAAUA [KL-SSTheoB5]” are 264 nM, 222 nM, 239 nM, 178 nM and 240 nM.
With “AAUACGCCGAAAGGAUAUAUAGAACAUCAAGGGCGCUGACUUUGCUAAAUCACAAGUGAUGUUUGUAUAGAAGGUUCGCAGUCAA [theeternabot_exclusion_KL_FMN_B_30]”, the “apparent KD of K4 kissing-loop reporter” value (input ligand: FMN 200 uM) worked out at 245 nM; the “apparent KD of K4 kissing-loop reporter” value (input ligand: arginine 13.2 mM) was determined as 427 nM; the “apparent KD of K4 kissing-loop reporter” value (input ligand: none) turned out to be 500 nM; the “apparent KD of K4 kissing-loop reporter” value under setting [1] is 452 nM; the “apparent KD of K4 kissing-loop reporter” value under setting [2] worked out at 437 nM.
With “AAUGAUGAUUGACACAUUUACUAAAAGGAAGGAGCGGCGAAGUAGCCAGGUAGGUCGCCUUAUAGCAGUGAUGUUGCUAUUUGUU [JR_Nu_ExcArginiA_Sub027]”, the “apparent KD of K4 kissing-loop reporter” value by setting is: (input ligand: FMN 200 uM) 59 nM; (input ligand: arginine 13.2 mM) 106 nM; (input ligand: none) 83.1 nM; under setting [1], 105 nM; under setting [2], 76.2 nM.
“AAUGUACAAGUGAUGUUUGUACUUUCCGAAGGAGCGUCUAAUAAGACAGGUAGGUCGCGGAUUCUCUUAAUUAUCAGGUCAUUAA [JR_ExcArginiA_Sub017]”: the “apparent KD of K4 kissing-loop reporter” value is 89.6 nM (input ligand: FMN 200 uM); 81.3 nM (input ligand: arginine 13.2 mM); 86.2 nM (input ligand: none); 80.6 nM under setting [1]; 81.6 nM under setting [2].
For “AAUGUACAGGGAAGGAGCGUCGUCCAGUGAUGUUGGAGUUAAAUACCAGUGAUGUUGGUUAGGCAGGUAGGUCGCCCUAAAGUAG [#09 K4 Arginine B Exclusion]”, the “apparent KD of K4 kissing-loop reporter” value reads like this: (input ligand: FMN 200 uM) 102 nM; (input ligand: arginine 13.2 mM) 71.4 nM; (input ligand: none) 80.1 nM; under setting [1], 86.5 nM; under setting [2], 82.1 nM.
The matching figures for “AAUUAAGUGACGGCCGCCACUAGGGUGAUUUUUUUGUUUGAGUGAUGUUUUGAUGUUUGAUUUUGUAGGACCGGGUUAGGUGAUG [juhmullin]”: 332 nM, 295 nM, 426 nM, 404 nM and 252 nM.
As to “AAUUAAUACAGAAGGAGCGUGUUUUUUAAUUUAUUUUCAUGAUCGAGUGAUGUUCGAUAUACACAGGUAGGUCGCUGUAUAUUUA [JR_SSArginiB_Sub008]”, the “apparent KD of K4 kissing-loop reporter” value is, setting by setting: (input ligand: FMN 200 uM) 98.8 nM; (input ligand: arginine 13.2 mM) 142 nM; (input ligand: none) 113 nM; under setting [1], 139 nM; under setting [2], 92.1 nM.
In the same order, the values of “AAUUCAGUGAUGUUGGAAGGCAGGAGGGAUACCAGCGGAAAUAAACGCCCUUGGCAGCCCAAAUAUCCCAAAUAGAUAAUAAUUU [Same State - Theophylline A (Freestyle 1)]” are 581 nM, 381 nM, 610 nM, 607 nM and 563 nM.
The matching figures for “AAUUUAUUAACUGAUACCAGACUUAAUUAAUUGUAAAUUACUAGUGAUGUUAGUGAUUCUGUCCCUUGGCAGCAGUAUUUAUUAA [JR_ExcTheophyB_Sub011]”: 98.3 nM, 120 nM, 113 nM, 139 nM and 92.5 nM.
The matching figures for “ACACUUUACGUAGGAUAUGCGACGAGUGAUGUUCGUCAGGCGGCUUUAGAUUAUACAAGCCGCCUAGCAGAAGGACGGGCAGUGU [Araar]”: 127 nM, 157 nM, 172 nM, 158 nM and 170 nM.
As to “ACAGUACCGGGAAGGAGCGUGAAUGAGAAUGGAUAUAGUGAUGUUAUGUAUACGAACGAAUCGCAGGUAGGUCGCCCGGAUCCCU [SSArgB.aD]”, the “apparent KD of K4 kissing-loop reporter” value (input ligand: FMN 200 uM) turned out to be 563 nM; the “apparent KD of K4 kissing-loop reporter” value (input ligand: arginine 13.2 mM) came out at 507 nM; the “apparent KD of K4 kissing-loop reporter” value (input ligand: none) is 650 nM; the “apparent KD of K4 kissing-loop reporter” value under setting [1] was found to be 722 nM; the “apparent KD of K4 kissing-loop reporter” value under setting [2] stood at 529 nM.
The matching figures for “ACAUUAGCGAGUGAUGUUCGCUAAGACGAAGGAGCGCUCGCGAGAGCAGGUAGGUCGCGUCUAGUGUCACUGUACUAAAUAGUGA [Arg A SS t12]”: 159 nM, 164 nM, 180 nM, 183 nM and 169 nM.
In the same order, the values of “ACGAAUCCAGCGGCCGCCACUAUUCGAUGAGUGAUGUUUAGGAGUAGAUCAUACCGCCGUGGUAAUAGGACCGGGCUCUUUGUAG [theeternabot_exclusion_KL_Trp_B_36]” are 289 nM, 129 nM, 201 nM, 193 nM and 207 nM.
In the same order, the values of “ACGAUCAUGUCGGCCGCCACUGAGAGUAGUGAUGUUACUCUUUUCCUUUAGUUAUUAUAUUUUAUCAGGACCGGGACAUGUUCGU [JR_ExcTryptoB_Sub022]” are 88.3 nM, 66.7 nM, 72.3 nM, 69.6 nM and 77.9 nM.
Consider “ACGCGCGCGAGUGAUGUUCGGAGCGGCUGGCAGGAUAUGUAGCAAUGCAGAAGGGUCGUGGCGGUGGGCGCGCAAGCGGCUGCCG [#2 Exclusion - FMN A Attempt #12 (HarryS)]”, for which the “apparent KD of K4 kissing-loop reporter” value (input ligand: FMN 200 uM) stood at 187 nM; the “apparent KD of K4 kissing-loop reporter” value (input ligand: arginine 13.2 mM) came out at 318 nM; the “apparent KD of K4 kissing-loop reporter” value (input ligand: none) is 396 nM; the “apparent KD of K4 kissing-loop reporter” value under setting [1] amounted to 399 nM; the “apparent KD of K4 kissing-loop reporter” value under setting [2] came to 371 nM.
In the same order, the values of “ACGUAGUUCUAGGAUACCAGCCAAGGAGGGUAGGACAAAAGUCCUGUAGCCAGUGAUGUUGGCCCUUGGCAGCCUAGAACUACGA [Omei KL Theo B Exc B v3]” are 162 nM, 183 nM, 138 nM, 139 nM and 151 nM.

The values are drawn from the supplement of paper PMC9170038.
